“And” between values parts separate entries of the source, which are not always exact repeats. Equal entries are not always repeated.
Target: T1, CRF2-4/zcytor11 heterodimeric receptor on BaF3/CRF2-4/zcytor11 cells (human, UniProt Q08334 20-325, limits assumed)
T1 sequence 1: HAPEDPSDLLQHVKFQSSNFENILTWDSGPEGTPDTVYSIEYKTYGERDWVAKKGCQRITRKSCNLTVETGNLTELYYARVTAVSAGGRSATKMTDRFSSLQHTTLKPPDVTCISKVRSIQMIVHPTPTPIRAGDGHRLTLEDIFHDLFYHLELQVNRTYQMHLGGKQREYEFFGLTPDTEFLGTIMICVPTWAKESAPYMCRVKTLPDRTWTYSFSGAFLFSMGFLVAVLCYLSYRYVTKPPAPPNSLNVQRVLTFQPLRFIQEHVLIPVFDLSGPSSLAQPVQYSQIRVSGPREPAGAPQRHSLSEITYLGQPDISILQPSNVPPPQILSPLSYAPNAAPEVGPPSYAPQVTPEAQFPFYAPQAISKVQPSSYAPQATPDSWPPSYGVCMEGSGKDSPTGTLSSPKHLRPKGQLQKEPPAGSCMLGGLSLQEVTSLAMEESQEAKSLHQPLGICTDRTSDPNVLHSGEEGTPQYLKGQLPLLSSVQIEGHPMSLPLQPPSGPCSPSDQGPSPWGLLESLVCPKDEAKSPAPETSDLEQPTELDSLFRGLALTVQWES
T1 sequence 2: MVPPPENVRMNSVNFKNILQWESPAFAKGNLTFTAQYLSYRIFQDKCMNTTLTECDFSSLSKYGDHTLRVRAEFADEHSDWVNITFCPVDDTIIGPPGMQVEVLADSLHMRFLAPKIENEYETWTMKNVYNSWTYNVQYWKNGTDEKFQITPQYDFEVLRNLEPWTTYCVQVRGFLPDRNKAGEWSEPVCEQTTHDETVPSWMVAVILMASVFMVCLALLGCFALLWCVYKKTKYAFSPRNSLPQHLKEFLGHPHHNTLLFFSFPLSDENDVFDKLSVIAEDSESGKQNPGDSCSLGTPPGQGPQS
Test: cell-based or functional assay

B1: ZCYTO18-CEE polypeptide purified from BHK 570 cells (ligand)
chain: APISSHCRLDKSNFQQPYITNRTFMLAKEASLADNNTDVRLIGEKLFHGVSMSERCYLMKQVLNFTLEEVLFPQSDRFQPYMQEVVPFLARLSNRLSTCHIEGDDLHIQRNVQKLKDTVKKLGESGEIKAIGELDLLFMSLRNACIEYMPME
- proliferation of BaF3/CRF2-4/zcytor11 cells (Alamar Blue): ~15 fold over background and 2 fold induction

Source: patent EP1242600B1 (ZymoGenetics, Inc., dated 2001)
